Here are results for 19 variants from the RNAGym collection of RNA variant scans (doi:10.1073/pnas.2313332121).

Variants at the floor of the assay were thinned out.

First the molecules themselves.
B1: TPR 5TU (parent)
chain: GGAUCUUCUCGAUCUAACAAAAAAGACAAAUCUGCCACAAAGCUUGAGAGCAUCUUCGGAUGCAGAGGCGGCAGCCUUCGGUGGCGCGAUAGCGCCAACGUUCUCAACUAUGACACGCAAAACGCGUGCUCCGUUGAAUGGAGUUUAUCAUG

The variants in the data set derive from B1. The data set is described as follows: polymerase ribozyme fitness, log enrichment relative to wild type (log ratio); higher = more active; in vitro selection for triplet polymerase activity. Summed up: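 Input and output libraries were sequenced on Illumina after a single in vitro selection round, run in triplicate on PCR-built, transcribed mutant libraries of each subunit of a heterodimeric triplet polymerase ribozyme. Selection annealed libraries to a biotinylated primer, the partner subunit and triplets, incubated them frozen at −7 °C, then gel-excised extended constructs for streptavidin-bead capture and RT-PCR. Genotypes with ≥10 input reads and ≥1 read per output were kept. Fitness is the logarithm, taken in base 2, of genotype enrichment divided by wild-type enrichment, using inverse-variance-weighted replicate averages.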
Regarding GGAUCUUCUCGAUCUAACAAUAAAGACAAAUCUGCCACAAAGCUUGAGAGCAUCUUCGGAUGCAGAGGCGGCAGCCUUCGGUGGCGCGAUAGCGCAAACGUUCUCAACUGUGACAUGCAAAACGCGUGCUCCGUUGAAUGGAGUGUAUCAUG [A21U C96A A110G C116U U145G], the “polymerase ribozyme fitness (log ratio)” value was not above -4.2. Next, GGAUCUUCUUGAUCUAACAAAAAAGACAAAUCUGCCACAAAGCUUGAGAGCAUCUUCGGAUGCAAAGGCGGCAGCCUUCGGUGGCGCGAUAACGCCAACGUUCUCAACUAUGACACGCAAAACGCGUGCUCCGUUGAAUGGAGUUUAUCAUG [C10U G65A G92A]: not above -4.2.

For GGAUCGUCUCGAUCUAACAAAAAAUACAAAUCUGCCACAAAGCUUGAGACCAUCUUCGGAUGCAGAGGCGGCAGCCUUCGGUGGCGCGAUAACGCCAACGUUCUCAACUAUGACACGCAAAACGCGUGCUCCGUUGAAUGGAGUUUAUCAUG [U6G G25U G50C G92A], the “polymerase ribozyme fitness (log ratio)” value is not above -4.2. As for GGAUCUUCUCGAUCUAACAAAAAAGACAAAUCUCCAACAAAGCUUGAGAGCAUCUUCGGAUGCAGAGGCGGCAGCCUUCGGUGGCGCGAUCGCGCUAACGUUCUCAACUAUGACACGCAAAAGGCGUGCUCCGUUGAAUAGAGUUUAUCAUG [G34C C36A A91C C96U C123G G140A], the figure is -4.15; as for GGAUCUUCUCGAUCUAACAAAAAAGACAAAUCUGCCACAAAGCUUGUGAGCAUCUUCGGAUGCAGAGGCGGCAGCCUUCGGUGGCGCGAUAGCGCCGGCGUUCUCAACUAUGACAUGCAAAACGCGUGCUCCGUUGAAUGGAGUUUAUCUUG [A47U A97G A98G C116U A150U], 0.886. In the case of GGAUCUUCUCGAUCUAACAAAAAAGACAAAUUUGCCACAAAGCUUGAGAGCAUCUUCGGAUGCAGAGGCGGCAGCCUUCGGUGGCGCGAUAGCGCCAACGAUCUCAACUAUGACACGCAAAACGCGUGCUCCGUUGAAUGGAGUUUAUCAUG [C32U U101A], the “polymerase ribozyme fitness (log ratio)” value was -3.76. As for GGAUCUUCUCGAUCUAACAAAAAAGACAAAUCUGCCACAAAGCUUGAGAGCAUCUUCGGAUGCAGAGGCGGCAGCCUUCGGUGGCGCGAUAGCGCCAACGUUCUCAACUAUGACACGCAACACGUGUGCUCCGUUGAAUGGAUUUUAUCAUG [A121C C125U G143U], the “polymerase ribozyme fitness (log ratio)” value is -2.41. Next, GGAUCUUCUCGACCUAACAAAAAAGCCAAAUCUGCCACAAAGCUUGAGAGCCUCUUCGGAUGCAGAGGCGGCAGCCUUCGGUGGCGCGAUAGCGCCAACGUUCUCAACUAUGACACGCAAAACGCGUGCUCCGUUGAAUGGAGUUUAUCAUG [U13C A26C A52C]: -3.55; GGAUCUUCUCGAUCUAACAAAAAAGACAAAUCUGCCACAAAGCUUGAGAGCAUCUUCGGAUGAAGAGGCGGCAGCCUUCGGUGGCGCGAUAGCGCCAACGUUCUCAACUAUGACACGCAAAACGCGUGCUCCGUUGAAUGGAGUUUCUCAUG [C63A A147C]: 0.331. With GGAUCUUCUCGAUCUAACAGAAAAGACAAAUCUGCCACAAAGCUUGAGAGCAUCUUCGGAUGCAGAGGCGGCAGCAUUCGGUGGCGCGAGAGCGCCGACGUUCUCAACUAUGACACGCAAAACGCGUGCUCCGUUCAAUGGAGUUUAUCAUG [A20G C76A U90G A97G G136C], the “polymerase ribozyme fitness (log ratio)” value is not above -4.2. For GGAUCUUCUCGAUCUAACAAAAAAGACAAAUCUGCCACAAAGCUUGAGAGCAUCUUCGGAUGCAGGGGCGGCUGCCUUCGAUGGCGCGAUAUCGCCAACGUUCUCAACUACGACACGCAAAACGCGUGCUCCGUUGAAUGGAGUUUAUCAUG [A66G A73U G81A G92U U111C], the “polymerase ribozyme fitness (log ratio)” value was not above -4.2. Next, GGAUCUUCUCGAUCUAACAAAAAAGACAAAUCUGCCACAAAGCUUGAGAGCAUCUUCGGAUGCAGAGGCGGCAGCCUUCGGUGGCGCGAUAGCGCCAACGUUCUCAACUAUGACAGGCAAAACGCGUGCUCCGUUGAAUCGAGUUUAUCAUG [C116G G140C]: -3.81; GGAUUUUCUCGAUCUACCAAAAAAGACAAAUCUGCCACAAAGCUUGAGAACAUCUUCGGAUGCAGAGGCGGCAGCCAUCGGUGGCGGGAUCGCGCCAACGUUCUCUACGAUGACACGCAAAACGCGUGCUCCGUUGAAUGGAGUUUAUCAUG [C5U A17C G50A U77A C87G A91C A106U U109G]: not above -4.2.

For the variant GGAUCUUCUCGAUCUAACAAAAAAGACAAAUCUGCCACAAAGCUUGAGAGCAUGAUCGGAUGCAGAGGCGGCAGCCUUCGGUGGCGCGAUAGCACCAACGUUCUCAACUAUGACACGCAAAACGCGUGCUCUGUUGAAUGGAGUUUAUCAUG [C54G U55A G94A C132U], the “polymerase ribozyme fitness (log ratio)” value is not above -4.2. For the variant GGAUCUUCUCGAUCUACCAAAAAAGACAAAUCUGCCAAAAAGCUUGAGAGCAUCGUCGGAUGCAGAGGCGGCAGCCUUCGGUGGCUCGAUAGCGCCAACGUUCUCAACUAUGACAGGCAAAGCGCGUGCUCCGUUGAAUGGAGUUUAUCAUG [A17C C38A U55G G86U C116G A122G], the “polymerase ribozyme fitness (log ratio)” value was -2.93. Next, GGAUCUUCUCGAUCUAACAAAAAGGACAAAUCUGCCACAAAGCUUGAGGGCAUCUUCGGAUGCAGAGGCGGCAGCCUUCGGUGGCGCGAUAGCGCCAACGUUCUUAACUAUGACACUCAAAACGCGUGCUCCGUUGAAUGGAGUUUAUCAUG [A24G A49G C105U G117U]: not above -4.2; GGAUCUUAUCGAUUUAACAAAAAAGACAAAUCUGCCGCAAAGCUUGAGAGCAUUUUCGGAUGCAGAGGCGGCAGCCUUCGGUGGUGCGAUAGCGCCAACGUUCUCAACUAUGACACGCAAAACGCGUGCUCCGUUGAAUGGAGUUUAUCAUG [C8A C14U A37G C54U C85U]: not above -4.2. Take GGAUCUUCUCGAUCUAACAAAAAAGACAAAUCUGCCACAAAGCUUGAGAGCAUCUUCGGAUGCAGCGGCGGCAUCCUUCGCUGGCGAGAUAGCGCCAACGUUCUCAACUAUGACACGAAAAACACGUGCUCCGUUGAAUGGAGUUUAUCAUG [A66C G74U G81C C87A C118A G124A]: the “polymerase ribozyme fitness (log ratio)” value is not above -4.2.

With GGAUCUUCUCGAUCUAACAAAAAAGACAAAUCUGCCACAAAGCUUGAGGGCAUCUUCGGAUGCAGAGGCGGCAGGCAUCGGCGGCGCGAUAGGGCCAACGUUCUCAACUAUGACACGCAAAACGUGUGCUCCGCUGAAUGGAGUUCUUCAUG [A49G C75G U77A U82C C93G C125U U134C U146C A147U], the “polymerase ribozyme fitness (log ratio)” value was not above -4.2.
